# From publication PMC4440519, “Cloning and characterization of farnesyl pyrophosphate synthase from the highly branched isoprenoid producing diatom Rhizosolenia setigera” (Scientific Reports, 2015)
# B1: RsFPPS (Sundstroemia setigera) (protein)
# chain: VSSLPPIIAGAAIYRLVSSKTLPDLTSAFFELEIPDQISLLSLLFASVFSAVSISGFIAPPGHNDDDDEDEHKPPFQYPLKEIASKTTDKEKFLSVYPCLRDSIAEYFATKHEMVPEGVNWITEMIDYSCVGGKMNRGITVLTVARTLSGSSGLTPREEARASVVGWGIEFLQAFFLVADDLMDDSKTRRGQPCWYLLPKVGTIAVNDSFLLESFVFTFLKEHFGKEPYYIKLVELFLETIQQTECGQLLDLTSQPKDAKTADLSRFTIERYRKIVKYKTAFYSFYLPVASAMLMSGVTNSKSFKTARNICCIMGEYFQIQDDVLDCYGTPEVIGKVGTDIQDNKCSWLIVQALDRATPEQRKVIEENYGKWDDAKVAKIKAIYNEMGLKSVFEKYEEDSYAEIQEELKKINDIPQEVFTLFLDKIYKRSK
# notes: kcat calculated for dimer
# Experiments:
# [1] = substrate: CC(C)=CCOP(=O)(O)OP(=O)(O)O; assay: LC/MS quantification of FPP formed; format: biochemical, Sundstroemia setigera; conditions: IPP 50 μM constant, 35 mM Tris-HCl pH 7.5, 10 mM MgCl2, 4 mM DTT, 30 °C
# [2] = substrate: CC(C)=CCC/C(C)=C/COP(=O)(O)OP(=O)(O)O; assay: LC/MS quantification of FPP formed; format: biochemical, Sundstroemia setigera; conditions: IPP 50 μM constant, 35 mM Tris-HCl pH 7.5, 10 mM MgCl2, 4 mM DTT, 30 °C
# purified protein = substrate: C=C(C)CCO[P@@](=O)(O)OP(=O)(O)O; assay: purified protein; conditions: DMAPP 50 μM constant, 35 mM Tris-HCl pH 7.5, 10 mM MgCl2, 4 mM DTT, 30 °C
protein,measurement,setting,value
B1,Km,[1],10.6 ± 2.3 µM
same,kcat,[1],5.73 ± 0.3038 s⁻¹
same,Km,[2],63.0 ± 7.5 µM
same,kcat,[2],43.5 ± 2.228 s⁻¹
same,Km,purified protein,21.5 ± 6.7 µM
same,kcat,purified protein,6.192 ± 0.5738 s⁻¹
